Experimental data taken from paper PMC5331220.

Legend:
Assay in all cases: ITC; GppNHp-Rab35 (480 μM) injected in 2 μl aliquots into the C-terminal MICAL1 domain (60 μM) in the cell; 10 °C; 50 mM Tris pH 8, 150 mM NaCl, 2 mM MgCl2, 2 mM TCEP, 5% glycerol; one-site model
[1] = target: MICAL1^918–1067 WT C-terminal domain (tag cleaved) (human) (UniProt Q8TDZ2)
[2] = target: MICAL1^879–1067 (tag cleaved, for ITC) (human) (UniProt Q8TDZ2)
[3] = target: MICAL1^918–1067 mutant S1 (human) (UniProt Q8TDZ2)

Chain of MICAL1^918–1067 WT C-terminal domain (tag cleaved) (human) (Q8TDZ2 918-1067): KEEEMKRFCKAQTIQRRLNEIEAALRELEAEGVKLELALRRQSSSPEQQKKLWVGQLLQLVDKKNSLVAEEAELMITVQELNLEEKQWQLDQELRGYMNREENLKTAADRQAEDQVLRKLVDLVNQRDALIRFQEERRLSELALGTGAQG
Chain of MICAL1^879–1067 (tag cleaved, for ITC) (human) (Q8TDZ2 879-1067): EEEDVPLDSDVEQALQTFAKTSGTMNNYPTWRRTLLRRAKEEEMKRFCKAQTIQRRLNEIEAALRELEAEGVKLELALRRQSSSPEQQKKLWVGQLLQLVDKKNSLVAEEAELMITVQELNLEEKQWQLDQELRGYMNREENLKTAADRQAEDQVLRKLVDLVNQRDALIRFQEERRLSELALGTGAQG

Kd [1]: 6.4 µM
stoichiometry N [1]: 1
Kd [2]: 13 µM
stoichiometry N [3]: 1
Substance: Rab35 (recombinant, for ITC and competition; Rab35^1-199 taken as the likeliest construct) (from UniProt Q15286 1-199) (natural protein)
